Eleven molecules from patent US20230220021A1 (UNIVERSITY OF COPENHAGEN, published 2023) can be followed below.

First the molecules themselves.
B1: cyclic nNOS β-hairpin peptide L107K (peptide)
peptide: cyclo(THKETTFTGDGTPKTIRVTQ[dP]GQ)
SMILES: CC[C@H](C)[C@@H]1NC(=O)[C@H]([C@@H](C)O)NC(=O)[C@H](CCCCN)NC(=O)[C@@H]2CCCN2C(=O)[C@H]([C@@H](C)O)NC(=O)CNC(=O)[C@H](CC(=O)O)NC(=O)CNC(=O)[C@H]([C@@H](C)O)NC(=O)[C@H](Cc2ccccc2)NC(=O)[C@H]([C@@H](C)O)NC(=O)[C@H]([C@@H](C)O)NC(=O)[C@H](CCC(=O)O)NC(=O)[C@H](CCCCN)NC(=O)[C@H](Cc2c[nH]cn2)NC(=O)[C@H]([C@@H](C)O)NC(=O)[C@H](CCC(N)=O)NC(=O)CNC(=O)[C@H]2CCCN2C(=O)[C@H](CCC(N)=O)NC(=O)[C@H]([C@@H](C)O)NC(=O)[C@H](C(C)C)NC(=O)[C@H](CCCNC(=N)N)NC1=O
B2: cyclic nNOS β-hairpin peptide T123F (peptide)
peptide: cyclo(THLETTFTGDGTPKTIRVFQ[dP]GQ)
SMILES: CC[C@H](C)[C@@H]1NC(=O)[C@H]([C@@H](C)O)NC(=O)[C@H](CCCCN)NC(=O)[C@@H]2CCCN2C(=O)[C@H]([C@@H](C)O)NC(=O)CNC(=O)[C@H](CC(=O)O)NC(=O)CNC(=O)[C@H]([C@@H](C)O)NC(=O)[C@H](Cc2ccccc2)NC(=O)[C@H]([C@@H](C)O)NC(=O)[C@H]([C@@H](C)O)NC(=O)[C@H](CCC(=O)O)NC(=O)[C@H](CC(C)C)NC(=O)[C@H](Cc2c[nH]cn2)NC(=O)[C@H]([C@@H](C)O)NC(=O)[C@H](CCC(N)=O)NC(=O)CNC(=O)[C@H]2CCCN2C(=O)[C@H](CCC(N)=O)NC(=O)[C@H](Cc2ccccc2)NC(=O)[C@H](C(C)C)NC(=O)[C@H](CCCNC(=N)N)NC1=O
B3: cyclic nNOS β-hairpin peptide T112D (peptide)
peptide: cyclo(THLETTFDGDGTPKTIRVTQ[dP]GQ)
SMILES: CC[C@H](C)[C@@H]1NC(=O)[C@H]([C@@H](C)O)NC(=O)[C@H](CCCCN)NC(=O)[C@@H]2CCCN2C(=O)[C@H]([C@@H](C)O)NC(=O)CNC(=O)[C@H](CC(=O)O)NC(=O)CNC(=O)[C@H](CC(=O)O)NC(=O)[C@H](Cc2ccccc2)NC(=O)[C@H]([C@@H](C)O)NC(=O)[C@H]([C@@H](C)O)NC(=O)[C@H](CCC(=O)O)NC(=O)[C@H](CC(C)C)NC(=O)[C@H](Cc2c[nH]cn2)NC(=O)[C@H]([C@@H](C)O)NC(=O)[C@H](CCC(N)=O)NC(=O)CNC(=O)[C@H]2CCCN2C(=O)[C@H](CCC(N)=O)NC(=O)[C@H]([C@@H](C)O)NC(=O)[C@H](C(C)C)NC(=O)[C@H](CCCNC(=N)N)NC1=O
B4: cyclic nNOS β-hairpin peptide T116C (peptide)
peptide: cyclo(THLETTFTGDGCPKTIRVTQ[dP]GQ)
SMILES: CC[C@H](C)[C@@H]1NC(=O)[C@H]([C@@H](C)O)NC(=O)[C@H](CCCCN)NC(=O)[C@@H]2CCCN2C(=O)[C@H](CS)NC(=O)CNC(=O)[C@H](CC(=O)O)NC(=O)CNC(=O)[C@H]([C@@H](C)O)NC(=O)[C@H](Cc2ccccc2)NC(=O)[C@H]([C@@H](C)O)NC(=O)[C@H]([C@@H](C)O)NC(=O)[C@H](CCC(=O)O)NC(=O)[C@H](CC(C)C)NC(=O)[C@H](Cc2c[nH]cn2)NC(=O)[C@H]([C@@H](C)O)NC(=O)[C@H](CCC(N)=O)NC(=O)CNC(=O)[C@H]2CCCN2C(=O)[C@H](CCC(N)=O)NC(=O)[C@H]([C@@H](C)O)NC(=O)[C@H](C(C)C)NC(=O)[C@H](CCCNC(=N)N)NC1=O
B5: cyclic nNOS β-hairpin peptide T105G (peptide)
peptide: cyclo(GHLETTFTGDGTPKTIRVTQ[dP]GQ)
SMILES: CC[C@H](C)[C@@H]1NC(=O)[C@H]([C@@H](C)O)NC(=O)[C@H](CCCCN)NC(=O)[C@@H]2CCCN2C(=O)[C@H]([C@@H](C)O)NC(=O)CNC(=O)[C@H](CC(=O)O)NC(=O)CNC(=O)[C@H]([C@@H](C)O)NC(=O)[C@H](Cc2ccccc2)NC(=O)[C@H]([C@@H](C)O)NC(=O)[C@H]([C@@H](C)O)NC(=O)[C@H](CCC(=O)O)NC(=O)[C@H](CC(C)C)NC(=O)[C@H](Cc2c[nH]cn2)NC(=O)CNC(=O)[C@H](CCC(N)=O)NC(=O)CNC(=O)[C@H]2CCCN2C(=O)[C@H](CCC(N)=O)NC(=O)[C@H]([C@@H](C)O)NC(=O)[C@H](C(C)C)NC(=O)[C@H](CCCNC(=N)N)NC1=O
B6: cyclic nNOS β-hairpin peptide T119N (peptide)
peptide: cyclo(THLETTFTGDGTPKNIRVTQ[dP]GQ)
SMILES: CC[C@H](C)[C@@H]1NC(=O)[C@H](CC(N)=O)NC(=O)[C@H](CCCCN)NC(=O)[C@@H]2CCCN2C(=O)[C@H]([C@@H](C)O)NC(=O)CNC(=O)[C@H](CC(=O)O)NC(=O)CNC(=O)[C@H]([C@@H](C)O)NC(=O)[C@H](Cc2ccccc2)NC(=O)[C@H]([C@@H](C)O)NC(=O)[C@H]([C@@H](C)O)NC(=O)[C@H](CCC(=O)O)NC(=O)[C@H](CC(C)C)NC(=O)[C@H](Cc2c[nH]cn2)NC(=O)[C@H]([C@@H](C)O)NC(=O)[C@H](CCC(N)=O)NC(=O)CNC(=O)[C@H]2CCCN2C(=O)[C@H](CCC(N)=O)NC(=O)[C@H]([C@@H](C)O)NC(=O)[C@H](C(C)C)NC(=O)[C@H](CCCNC(=N)N)NC1=O
B7: cyclic nNOS β-hairpin peptide T116W (peptide)
peptide: cyclo(THLETTFTGDGWPKTIRVTQ[dP]GQ)
SMILES: CC[C@H](C)[C@@H]1NC(=O)[C@H]([C@@H](C)O)NC(=O)[C@H](CCCCN)NC(=O)[C@@H]2CCCN2C(=O)[C@H](Cc2c[nH]c3ccccc23)NC(=O)CNC(=O)[C@H](CC(=O)O)NC(=O)CNC(=O)[C@H]([C@@H](C)O)NC(=O)[C@H](Cc2ccccc2)NC(=O)[C@H]([C@@H](C)O)NC(=O)[C@H]([C@@H](C)O)NC(=O)[C@H](CCC(=O)O)NC(=O)[C@H](CC(C)C)NC(=O)[C@H](Cc2c[nH]cn2)NC(=O)[C@H]([C@@H](C)O)NC(=O)[C@H](CCC(N)=O)NC(=O)CNC(=O)[C@H]2CCCN2C(=O)[C@H](CCC(N)=O)NC(=O)[C@H]([C@@H](C)O)NC(=O)[C@H](C(C)C)NC(=O)[C@H](CCCNC(=N)N)NC1=O
B8: cyclic nNOS β-hairpin peptide T109S (peptide)
peptide: cyclo(THLESTFTGDGTPKTIRVTQ[dP]GQ)
SMILES: CC[C@H](C)[C@@H]1NC(=O)[C@H]([C@@H](C)O)NC(=O)[C@H](CCCCN)NC(=O)[C@@H]2CCCN2C(=O)[C@H]([C@@H](C)O)NC(=O)CNC(=O)[C@H](CC(=O)O)NC(=O)CNC(=O)[C@H]([C@@H](C)O)NC(=O)[C@H](Cc2ccccc2)NC(=O)[C@H]([C@@H](C)O)NC(=O)[C@H](CO)NC(=O)[C@H](CCC(=O)O)NC(=O)[C@H](CC(C)C)NC(=O)[C@H](Cc2c[nH]cn2)NC(=O)[C@H]([C@@H](C)O)NC(=O)[C@H](CCC(N)=O)NC(=O)CNC(=O)[C@H]2CCCN2C(=O)[C@H](CCC(N)=O)NC(=O)[C@H]([C@@H](C)O)NC(=O)[C@H](C(C)C)NC(=O)[C@H](CCCNC(=N)N)NC1=O
B9: cyclic nNOS β-hairpin peptide T116N (peptide)
peptide: cyclo(THLETTFTGDGNPKTIRVTQ[dP]GQ)
SMILES: CC[C@H](C)[C@@H]1NC(=O)[C@H]([C@@H](C)O)NC(=O)[C@H](CCCCN)NC(=O)[C@@H]2CCCN2C(=O)[C@H](CC(N)=O)NC(=O)CNC(=O)[C@H](CC(=O)O)NC(=O)CNC(=O)[C@H]([C@@H](C)O)NC(=O)[C@H](Cc2ccccc2)NC(=O)[C@H]([C@@H](C)O)NC(=O)[C@H]([C@@H](C)O)NC(=O)[C@H](CCC(=O)O)NC(=O)[C@H](CC(C)C)NC(=O)[C@H](Cc2c[nH]cn2)NC(=O)[C@H]([C@@H](C)O)NC(=O)[C@H](CCC(N)=O)NC(=O)CNC(=O)[C@H]2CCCN2C(=O)[C@H](CCC(N)=O)NC(=O)[C@H]([C@@H](C)O)NC(=O)[C@H](C(C)C)NC(=O)[C@H](CCCNC(=N)N)NC1=O
B10: cyclic nNOS β-hairpin peptide T119S (peptide)
peptide: cyclo(THLETTFTGDGTPKSIRVTQ[dP]GQ)
SMILES: CC[C@H](C)[C@@H]1NC(=O)[C@H](CO)NC(=O)[C@H](CCCCN)NC(=O)[C@@H]2CCCN2C(=O)[C@H]([C@@H](C)O)NC(=O)CNC(=O)[C@H](CC(=O)O)NC(=O)CNC(=O)[C@H]([C@@H](C)O)NC(=O)[C@H](Cc2ccccc2)NC(=O)[C@H]([C@@H](C)O)NC(=O)[C@H]([C@@H](C)O)NC(=O)[C@H](CCC(=O)O)NC(=O)[C@H](CC(C)C)NC(=O)[C@H](Cc2c[nH]cn2)NC(=O)[C@H]([C@@H](C)O)NC(=O)[C@H](CCC(N)=O)NC(=O)CNC(=O)[C@H]2CCCN2C(=O)[C@H](CCC(N)=O)NC(=O)[C@H]([C@@H](C)O)NC(=O)[C@H](C(C)C)NC(=O)[C@H](CCCNC(=N)N)NC1=O
B11: cyclic nNOS β-hairpin peptide T116P (peptide)
peptide: cyclo(THLETTFTGDGPPKTIRVTQ[dP]GQ)
SMILES: CC[C@H](C)[C@@H]1NC(=O)[C@H]([C@@H](C)O)NC(=O)[C@H](CCCCN)NC(=O)[C@@H]2CCCN2C(=O)[C@@H]2CCCN2C(=O)CNC(=O)[C@H](CC(=O)O)NC(=O)CNC(=O)[C@H]([C@@H](C)O)NC(=O)[C@H](Cc2ccccc2)NC(=O)[C@H]([C@@H](C)O)NC(=O)[C@H]([C@@H](C)O)NC(=O)[C@H](CCC(=O)O)NC(=O)[C@H](CC(C)C)NC(=O)[C@H](Cc2c[nH]cn2)NC(=O)[C@H]([C@@H](C)O)NC(=O)[C@H](CCC(N)=O)NC(=O)CNC(=O)[C@H]2CCCN2C(=O)[C@H](CCC(N)=O)NC(=O)[C@H]([C@@H](C)O)NC(=O)[C@H](C(C)C)NC(=O)[C@H](CCCNC(=N)N)NC1=O

For orientation: Ki means the equilibrium dissociation constant of an inhibitor or competing ligand from its target.

[ ]: non-standard residue; d: D form.

T1 sequence (P78352 160-246): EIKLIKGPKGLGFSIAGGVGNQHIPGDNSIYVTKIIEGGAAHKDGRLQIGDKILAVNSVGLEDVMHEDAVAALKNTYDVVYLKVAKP

This assay addresses T1, (7× His)-PSD-95-PDZ2 wild type (UniProt P78352 160-246).
T1 construct: domain: PDZ2; recombinant from E. coli; also called PSD-95-PDZ2 WT; not shown: 7x His tag
Kind of assay: FP competition.
In the case of B1, the Ki was found to be 1200 nM and the “Relative Ki (Ki mut/Ki WT)” value amounted to 0.8.

Regarding B2, the affinity, expressed as Ki, was 1580 nM and the “Relative Ki (Ki mut/Ki WT)” value stood at 1.05.

B3: affinity was put at a Ki of 950 nM and the “Relative Ki (Ki mut/Ki WT)” value worked out at 0.63.

B4: the Ki is 1360 nM and the “Relative Ki (Ki mut/Ki WT)” value worked out at 0.91.

With B5, the affinity corresponds to a Ki of 4500 nM and the “Relative Ki (Ki mut/Ki WT)” value was 3.

As to B6, the Ki is 18900 nM and the “Relative Ki (Ki mut/Ki WT)” value stood at 12.6.

In the case of B7, the Ki worked out at 1040 nM and the “Relative Ki (Ki mut/Ki WT)” value came out at 0.69.

As for B8, the affinity, expressed as Ki, was 24500 nM and the “Relative Ki (Ki mut/Ki WT)” value was found to be 2.51.

In the case of B9, the Ki came out at 510 nM and the “Relative Ki (Ki mut/Ki WT)” value came out at 0.34.

With B10, the inhibition constant (Ki) was 7190 nM and the “Relative Ki (Ki mut/Ki WT)” value turned out to be 4.79.

Turning to B11, the affinity corresponds to a Ki of 1160 nM and the “Relative Ki (Ki mut/Ki WT)” value turned out to be 0.77.
